The target of test [1] is T1, recombinant cynomolgus IL-2Rβ (extracellular domain, Ala1-Thr215) (cynomolgus, UniProt Q38J85 27-240).
T1 construct: extracellular domain; Analyte in SPR; also called cynomolgus LL-2Rβ; Cyno IL-2RB
T1 sequence (looked up): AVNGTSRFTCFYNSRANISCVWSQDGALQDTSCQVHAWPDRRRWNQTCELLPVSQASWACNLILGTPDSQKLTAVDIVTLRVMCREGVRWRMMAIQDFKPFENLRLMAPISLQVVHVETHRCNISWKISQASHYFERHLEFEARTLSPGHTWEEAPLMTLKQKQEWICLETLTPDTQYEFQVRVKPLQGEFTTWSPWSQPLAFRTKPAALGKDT
Nature of the test: SPR, antibody captured on Protein A chip. The method, boiled down:
(§1)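 Antibodies captured on a Protein A chip (0.5 μg/mL, 60 s), then exposed to IL-2Rβ extracellular domain (Ala1-Thr215) at about 0.4–11 nM; 300 s association, 1200 s dissociation. On- and off-rates and KD from a global 1:1 binding fit.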

The target in test [2] is T2, recombinant human IL-2Rβ (extracellular domain, Ala1-Thr215) (human, UniProt P14784 27-240).
T2 construct: extracellular domain; Analyte in SPR; Ala1-Thr215 is counted on the mature protein; also called human LL-2Rβ; Human IL-2RB
T2 sequence (looked up): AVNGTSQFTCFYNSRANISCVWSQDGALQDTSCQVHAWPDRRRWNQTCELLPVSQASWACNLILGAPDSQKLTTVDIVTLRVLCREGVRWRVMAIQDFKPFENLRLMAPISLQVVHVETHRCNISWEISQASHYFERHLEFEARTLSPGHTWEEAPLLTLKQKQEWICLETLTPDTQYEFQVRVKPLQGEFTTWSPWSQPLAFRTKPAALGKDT
In words: SPR, antibody captured on Protein A chip. A digest of the protocol:
as §1
(In SPR one partner is held on a chip, and binding of the other changes the refractive index at the surface.)

The target in test [3] is T3, human IL-2Rβ (CD122), full-length, on cells (human, UniProt P14784 27-551).
T3 construct: whole, on cells; also called human IL-2Rβγ; human IL-2βγ
T3 sequence (looked up): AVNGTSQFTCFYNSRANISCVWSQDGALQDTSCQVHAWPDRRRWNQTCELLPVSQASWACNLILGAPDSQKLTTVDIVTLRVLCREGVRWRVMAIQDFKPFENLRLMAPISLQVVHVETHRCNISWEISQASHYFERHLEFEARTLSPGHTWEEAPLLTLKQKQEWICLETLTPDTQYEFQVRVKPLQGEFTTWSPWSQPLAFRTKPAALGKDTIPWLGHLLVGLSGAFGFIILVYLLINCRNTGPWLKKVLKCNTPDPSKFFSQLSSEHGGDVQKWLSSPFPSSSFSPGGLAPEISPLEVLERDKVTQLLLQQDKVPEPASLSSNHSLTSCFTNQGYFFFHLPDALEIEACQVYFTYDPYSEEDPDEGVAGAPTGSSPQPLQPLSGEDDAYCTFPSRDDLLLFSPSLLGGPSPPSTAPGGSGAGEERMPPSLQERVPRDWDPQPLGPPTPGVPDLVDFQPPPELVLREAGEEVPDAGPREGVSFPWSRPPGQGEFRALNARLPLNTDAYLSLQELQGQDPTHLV
Nature of the test: flow cytometry on CHO-K1 cells expressing human IL-2Rβ and IL-2Rγ (panel 'Cell Binding human IL-2Rbg CHO'); unit taken from the axis 'Antibody Concentration nM'. On the procedure:
(§2) CHO-K1 cells stably expressing either full-length human or cyno IL-2Rβ and IL-2Rγ cultured in the log phase of growth were harvested with Accutase solution, resuspended in FACS buffer, and plated at 100,000 cells/well in a 96 well plate. The concentrations indicated in FIG. 5 of antibodies starting at 100 nM and diluted 1:3 were incubated with the cells for 45 minutes on a plate shaker at4° C. After washing, cells were incubated with goat anti-human kappa DyL650 secondary antibody for 20 minutes on a plate shaker at4° C. Cells were washed again and analyzed on a FACSArray flow cytometer. Data were analyzed using Novoexpress and GraphPad Prism software.

Test [4] concerns the target T4, cynomolgus IL-2Rβ (CD122), full-length, on cells (cynomolgus, UniProt Q38J85 27-551).
T4 construct: whole, on cells; Co-expressed with full-length cynomolgus IL-2Rγ on CHO-K1 cells; also called cynomolgus IL-2Rβγ; cyno IL-2βγ
T4 sequence (looked up): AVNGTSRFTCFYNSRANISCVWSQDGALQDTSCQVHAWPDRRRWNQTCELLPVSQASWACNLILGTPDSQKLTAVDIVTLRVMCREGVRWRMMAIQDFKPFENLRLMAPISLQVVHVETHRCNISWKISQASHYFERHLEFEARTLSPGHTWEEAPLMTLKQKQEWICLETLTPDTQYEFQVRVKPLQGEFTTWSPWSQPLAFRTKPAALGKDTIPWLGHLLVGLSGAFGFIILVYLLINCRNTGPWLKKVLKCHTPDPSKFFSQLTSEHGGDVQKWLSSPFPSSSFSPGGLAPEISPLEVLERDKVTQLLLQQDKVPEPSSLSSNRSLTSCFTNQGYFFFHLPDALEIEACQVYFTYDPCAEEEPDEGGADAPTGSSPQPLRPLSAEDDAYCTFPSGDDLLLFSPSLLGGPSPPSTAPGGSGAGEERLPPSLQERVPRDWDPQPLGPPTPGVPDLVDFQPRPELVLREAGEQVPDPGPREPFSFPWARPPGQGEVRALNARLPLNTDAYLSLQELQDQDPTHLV
In words: flow cytometry on CHO-K1 cells expressing cynomolgus IL-2Rβ and IL-2Rγ (panel 'Cell Binding cyno IL-2Rbg CHO'); unit taken from the axis 'Antibody Concentration nM'. The procedure: as §2
(In general: In flow cytometry, cells or beads pass a laser one at a time.)

B1: APE15148 (antibody, V domains shown)
VH: QVQLVQSGAEVKKPGASVKVSCKASGYTFSRYWIQWVRQAPGQGLEWMGEILPGSGSINHNEKFQGRVTMTRDTSTSTVYMELSSLRSEDTAVYYCTRHYGSFDYWGQGTTVTVSS
VL: DIQMTQSPSSLSASVGDRVTITCKASQNVGTDVAWYQQKPGKAPKSLIYSASYRYSGVPSRFSGSGSGTDFTLTISSLQPEDFATYFCHQYESYPFTFGQGTKLEIKR
notes: M6-p1625 series
A word on the Kd: it is the constant that tells how readily two partners part at equilibrium. Usually EC50 stands for the concentration needed to bring the measured effect to its halfway point. A low value points to an effect from little substance. B1: the Kd came to 0.0715 nM in test [1] and 0.0945 nM in test [2]. Moreover, the EC50 was 0.105 nM in test [3] and 0.103 nM in test [4].

B2: APE15142 (antibody, V domains shown)
VH: EVQLVQSGAEVKKPGATVKISCKVSGFNFKYSLIHWVQQAPGKGLEWMGWIDNEAGETEYAPGFQDRVTITADTSTDTAYMELSSLRSEDTAVYYCARGGPWFLSYWGQGTTVTVSS
VL: EIVMTQSPATLSVSPGERATLSCRASQIISNNLHWYQQKPGQAPRLLIIYGLQSISGIPARFSGSRSGTEFTLTISSLQSEDFAVYYCQQSNNWPWTFGQGTKLEIKR
notes: M10-1275 series
For B2, the Kd in test [1] is 0.0105 nM; in test [2], 0.0222 nM. The EC50 is 0.147 nM in test [3] and 0.163 nM in test [4].

B3: APE15171 (antibody, V domains shown)
VH: EVQLVQSGAEVKKPGATVKISCKVSGFNFKYSLIHWVQQAPGKGLEWMGWIDNEAGETEYAPGFQDRVTITADTSTDTAYMELSSLRSEDTAVYYCARGGPWFLSYWGQGTTVTVSS
VL: EIVMTQSPATLSVSPGERATLSCRASQIISNNLHWYQQKPGQAPRLLIIYGLQSISGIPARFSGSRSGTEFTLTISSLQSEDFAVYFCQQSNNFPYTFGQGTKLEIKR
notes: M10-1275 series
Consider B3, for which the Kd worked out at 0.0522 nM in test [1] and 0.276 nM in test [2].

B4: APE15168 (antibody, V domains shown)
VH: EVQLVQSGAEVKKPGATVKISCKVSGFNFKESLIHWVQQAPGKGLEWMGWIDNEAGETEYAPGFQDRVTITADTSTDTAYMELSSLRSEDTAVYYCARGGPWFLSYWGQGTTVTVSS
VL: EIVMTQSPATLSVSPGERATLSCRASQIISNNLHWYQQKPGQAPRLLIIYGLQSISGIPARFSGSRSGTEFTLTISSLQSEDFAVYFCQQSNNFPYTFGQGTKLEIKR
notes: M10-1275 series
As to B4, the figures for the Kd in test [1] and in test [2] were 0.0379 nM and 0.324 nM, respectively.

B5: APE15169 (antibody, V domains shown)
VH: EVQLVQSGAEVKKPGATVKISCKVSGFNFKESLIHWVQQAPGKGLEWMGWIDNEAGETEYAPGFQDRVTITADTSTDTAYMELSSLRSEDTAVYYCARGGPWFLSYWGQGTTVTVSS
VL: EIVMTQSPATLSVSPGERATLSCRASQIISNNLHWYQQKPGQAPRLLIIYGLQSISGIPARFSGSRSGTEFTLTISSLQSEDFAVYFCQQSNNWPYTFGQGTKLEIKR
notes: M10-1275 series
For the molecule B5, the Kd turned out to be 0.0144 nM in test [1] and 0.0995 nM in test [2]. The EC50 amounted to 0.308 nM in test [3] and 0.333 nM in test [4].

B6: APE15172 (antibody, V domains shown)
VH: EVQLVQSGAEVKKPGATVKISCKVSGFNFKYSLIHWVQQAPGKGLEWMGWIDNEAGETEYAPGFQDRVTITADTSTDTAYMELSSLRSEDTAVYYCARGGPWFLSYWGQGTTVTVSS
VL: EIVMTQSPATLSVSPGERATLSCRASQIISNNLHWYQQKPGQAPRLLIIYGLQSISGIPARFSGSRSGTEFTLTISSLQSEDFAVYFCQQSNNWPYTFGQGTKLEIKR
notes: M10-1275 series
As to B6, the Kd is 0.0271 nM in test [1] and 0.116 nM in test [2].

B7: APE15276 (antibody, V domains shown)
VH: EVQLVQSGAEVKKPGATVKISCKVSGFNFKESLIHWVQQAPGKGLEWMGWIDNEAGETEYAPGFQDRVTITADTSTDTAYMELSSLRSEDTAVYYCARSGPWFLSYWGQGTTVTVSS
VL: EIVMTQSPATLSVSPGERATLSCRASQIISNNLHWYQQKPGQAPRLLIIYGLQSISGIPARFSGSRSGTEFTLTISSLQSEDFAVYFCQQSNNFPWTFGQGTKLEIKR
notes: M10-1275 series
In the case of B7, the Kd in test [1] was determined as 0.00599 nM; in test [2] it was 0.0178 nM.

B8: APE15173 (antibody, V domains shown)
VH: EVQLVQSGAEVKKPGATVKISCKVSGFNFKYSLIHWVQQAPGKGLEWMGWIDNEAGETEYAPGFQDRVTITADTSTDTAYMELSSLRSEDTAVYYCARGGPWFLSYWGQGTTVTVSS
VL: EIVMTQSPATLSVSPGERATLSCRASQIISNNLHWYQQKPGQAPRLLIIYGLQSISGIPARFSGSRSGTEFTLTISSLQSEDFAVYFCQQSNNFPWTFGQGTKLEIKR
notes: M10-1275 series
On to B8, for which the Kd came to 0.00509 nM in test [1] and 0.0184 nM in test [2].

B9: APE15140 (antibody, V domains shown)
VH: EVQLVQSGAEVKKPGATVKISCKVSGFNFKESLIHWVQQAPGKGLEWMGWIDNEAGETEYAPGFQDRVTITADTSTDTAYMELSSLRSEDTAVYYCARGGPWFLSYWGQGTTVTVSS
VL: EIVMTQSPATLSVSPGERATLSCRASQIISNNLHWYQQKPGQAPRLLIIYGLQSISGIPARFSGSRSGTEFTLTISSLQSEDFAVYYCQQSNNWPWTFGQGTKLEIKR
notes: M10-1275 series
In the case of B9, the Kd in test [1] is 0.0102 nM; in test [2], 0.0217 nM. Besides, the concentration giving a half-maximal response (EC50) is 0.138 nM in test [3] and 0.18 nM in test [4].

B10: APE15446 (antibody)
heavy: not shown
light: EIVMTQSPATLSVSPGERATLSCRASQIISNNLHWYQQKPGQAPRLLIIYGLQSISGIPARFSGSRSGTEFTLTISSLQSEDFAVYFCQQSNNFPWTFGQGTKLEIKRTVAAPSVFIFPPSDEQLKSGTASVVCLLNNFYPREAKVQWKVDNALQSGNSQESVTEQDSKDSTYSLSSTLTLSKADYEKHKVYACEVTHQGLSSPVTKSFNRGEC
notes: M10-1275 series
With B10, the Kd turned out to be 0.00415 nM in test [1] and 0.0107 nM in test [2].

B11: APE15428 (antibody)
heavy: not shown
light: DIQMTQSPSSLSASVGDRVTITCKASQNVGTDVAWYQQKPGKAPKSLIYSASYRYSGVPSRFSGSGSGTDFTLTISSLQPEDFATYFCHQYESYPFTFGQGTKLEIKRTVAAPSVFIFPPSDEQLKSGTASVVCLLNNFYPREAKVQWKVDNALQSGNSQESVTEQDSKDSTYSLSSTLTLSKADYEKHKVYACEVTHQGLSSPVTKSFNRGEC
notes: M6-p1625 series
As to B11, the dissociation constant Kd in test [1] is 0.0765 nM; in test [2], 0.0567 nM.

Source of the values: US20260265385A1 (ANAPTYSBIO, published 2026).
